Reference: the nanobody polyreactivity screen of Harvey et al. (2022)

Assay: yeast display, Sf9 membrane polyspecificity reagent, FACS + sequencing; frameworks hold sequencing errors
In short: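 A synthetic nanobody library was expressed on Saccharomyces cerevisiae BJ5465 by galactose induction for 36–48 hours. The library was stained for 1 hour at 4 °C with 10% biotinylated, detergent-solubilized Sf9 membrane reagent and enriched with streptavidin microbeads before FACS. Low and high (top ~1%) gates were set on anti-HA fluorescence for expression and streptavidin fluorescence for reagent binding, and each polyreactivity label reflects the gate of origin.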

| Sequence | polyreactivity (PSR sort gate) |
| --- | --- |
| QFQLVESGGGLVQAGGSLRLSCAASGRTFQLNAMGWYRQAPGKERELVAAISTRGGSTNYADSVKGRFTISRDNAKNTVYLQMNRLKPEDTAVYYCAKDPSFTRGFKEGGGYDYWGQGSQVTVSS | high polyreactivity |
| QFQLVESGGGLVQAGGSLRLSCAASGRTFYAYAMGWYRQAHGKARELVAAIRGRTYYADSVKGRFTISSDNAKNTVYLQMNSLKPEDTAVYYCAARWVPREKLMFYWGQGTQVTVSW | high polyreactivity |
| QFQLVESGGGLVQAGGSLRLSCAASGRTFYQYTMGWYRQAPGKERELVAAITTSTGNTYYADSVKGRFTISRDNAKNTVYLQLNSLKPEDTAVYYCAAEPPTYKLLDYWGQGTQVTVSS | low polyreactivity |
| QFQLVESGGGLVQAGGSLRLSCAASGRTSLGYDMRWYRQAPGKERELVAAITRSGGYTYYADSVKGRFTISRDNAKNTVYLQMNSLKPEDTAVYYCAAYWRYSGYYYWGQGTQVTVSS | low polyreactivity |
| QFQLVESGGGLVQAGGSLRLSCAASGSIFDIYAMGWYRPAPGKERELVADITISGGSTYYADSVKGRFTISRDNAKNTVYLQLNSLIPEDTAVYYCAADVTVVLGYKYDYWGQGTQVTVSS | low polyreactivity |
| QFQLVESGGGLVQAGGSLRLSCAASGSIFFIYAMGWYRQAPGKERELVATITSGGSTYYADSVKGRFTISRDNAKNTVYLQMNSLKPEDTAVYYCAVDEYFAFDYWGQGTQVTVSS | low polyreactivity |
| QFQLVESGGGLVQAGGSLRLSCAASGSIFVPYAMGWYRQAPGKERELVAAISSSTASTYYADSVKGRFTISRDNAKNTVYLQMNSLKPEDTAVYYCNAEQWDYGVRVAHYDYWGQGTQVTVSS | low polyreactivity |
| QFQLVESGGGLVQAGGSLRLSCAASGSIFVYNVMGWYRQAPGKERELVAAITYSGGGTYYADSVKGRFTISRDTAKNTVYLQMNSLKPEDTAVYYCAAAYPSVAYSYRYDYWGQGTQVTVSS | high polyreactivity |
| QFQLVESGGGLVQAGGSLRLSCAASGSIFYRNAMGWYRQAPGKERELVAAISRRGGSTYYADSVKGRFTISRDNAKNTVYLQMNSLKPEDTAVYYCATDGSTSKLVTVAYDYWGQGTQVTVSS | high polyreactivity |
| QFQLVESGGGLVQAGGSLRLSCAASGSTFGVYALGWYRQAPGKARELVATINSGGSTNYADSVKRRFTSSRDNAKNTVYLQMTSLTPEDTAVYYCAAGPFWQDFYVYEYDYWGQGTQVTVSS | low polyreactivity |
| QFQLVESGGGLVQAGGSLRLSCAASGSTFNYNAMGWYRQAPGKERELVAAISSSGGSTYYADSVKGRITISRDNAKNTVYLQMNSLKPEDTAVYSCATGGSSRVRTEGDYWGQGTQVTVSS | low polyreactivity |
| QFQLVESGGGLVQAGGSLRLSCAASGTFYPYAMGWYRQAPGKERELVAGITGSGGYTYFADSVKGRFTISRDNAKNTVYLQMNSLKPEDTAVYYCAKRSWIEYDYWGQGTQVTVSS | low polyreactivity |
| QFQLVESGGGLVQAGGSLRLSSAASGFIIRYYAMGWYRQAPGKERELVAAISASGGSTYYADSVKGRFTISRDNAKNTVYLQMNSLKPEDTAVYYCAARYWLREDYWGQGTQVTVSS | high polyreactivity |
| QFQLVESGGGLVQPGGRLRLICAASGHNFPLNAMGWYRQAPGKERELVAAISRTGGSTYYADSVKGRFTISRDNAKFSVYLQMNSLKPEDTALYFCAKRGQACEDYWGEGTQVTVSS | high polyreactivity |
| QFQLVESGGGLVQSGGSLRLSCAASGLIFVFYAMGWYRQAPGKERELVAAISTSGDRTYYADSVKGRFTISRDNAKNTVYLQMNSLKPEDTAVYYCAAGRRKVPYSREYYYWGQGTQVTVSS | high polyreactivity |
| QFQLVESGGVLDQAGGSLRLSCAASGSNFTIYAIGWYRQAPGKERELVADISSGGSTYYADSVKGRFTISRDNAKNTVYLQMNSLNPEDTAVYYCAAGVFFFTFVYWGQGTQVTVSS | low polyreactivity |
| QFQLVESGGVLVQAGGILRLSCAASGSIFIDNAMGWYRQEPGKERDLVAAITVRGASTNYADSVKGRFTISRDNAKNTVYLQMNSLKPEDTAVYYCNAVGLRSPWHQDYLIRYDYWGQGTQVTVSS | low polyreactivity |
| QFQLVESGRGLVQAGGSLRLSCAASGSIFYAYAMGWYRKAPGKEREFVAVISYSGGSTYYADSVQGRFTISRDKAKNTVYLQMNSLKPEDTAVYYCAARYRAWSGNYWGQGTQVTVSS | high polyreactivity |
| QFQLVESLGGLDQAGGSLRLSFAASGLIILAYAMVWYRQAPGKERELVAAISRNRGSTYYADSVKGRLTISRDNAKNTVYLQMNSLKPEVTEVYYCNNVSRSSVYLDYYYWGQGTQVTVSS | high polyreactivity |
| QFQLVESRGGLVQAGGSLRLSCAASGSIFGSNAMGLYRQAPAKERELVAANSGSGGSTNYADSVKGRLTLSRDIAQNTVYLHMNSLKPEDTAVYYCAVPSKATGSASTSYGIFDSWGQGTQVTVSS | low polyreactivity |
| QFQLVESVGGLVQAGGSLRLSFAASGFNFDYNAMGWYRQAPGKERELVAAISNTGDSTYYADSVKGRFTISRDNAKNTVYLQMNSLQPEDTAVYYCAADSLFDDYWEYDYWGQGTQVTVSS | low polyreactivity |

| Sequence | polyreactivity (PSR sort gate) |
| --- | --- |
| QFQLVETGGGLVQAGGSLRLSCAASGSILGFNAMRWYIQAPGKESELGAAIRWSGDSTYADSVKGLFTMSRDNAKNTVYLQMNSLTQEDPSFYYCNARDTSYANWLSHFYYWGQGTQVTVSW | low polyreactivity |
| QFQLVETGGGLVQAGGSLRLSSAASGSTFTLYAMGWYRQAPGKERELVATITGSGGSTNYADSVKGRFTISRDNAKNTVYLQMNSLKPEDTAVYYCAADYAVYSFTEFNYWGQGTQVTVSS | high polyreactivity |
| QFQRGESGGGLVQAGGSLRLSCAASGRLFYSYAMGGYRQAPGKERELVAAINSGDRTYYADSVKGRFTISRDNAKNTVYLQKNSLNPEDPAVYYCATRWFAFPWDEYNYWGQGSQVTVSS | low polyreactivity |
| QFQRVDSGGGLVQAGGSLRLSCAASGSTLAVNAMGWYRQAHGKERELVAAITRSGGRTYYADSLKWRFTISRDNAKNTVYLQMNSLKPEDTAVYYFGAKWYYPFIPKRTTRYGFDYWGHGTQVTVSS | high polyreactivity |
| QGHLVESGGGLVQAGGSLRLSCAASGVTFYTYDMGWYRQAPGKERELVAGIDWSGGSTYYADSVNGRFTISRDNAKNTVDLLMNSLKPEYTAVYYCASDYYYASQMDYWGQGTQVTVSS | low polyreactivity |
| QGLLVESGGGLVQAGGSLRLTCAASGFIFSGYAMGWYRPAPGKERELVAAISWSGSSTYYADSVKGRFTISRDNAKNTVYLQMNSLKPEDTAVYYCAAWYTSTRPYDYWGQGTQVTVSS | high polyreactivity |
| QGQHVESGGGLVHAGGSLRLSCAASGSIFPYYAMGWYRQRPGKERELVAAITDCGSTNYADSVKGRFTISRDNAKNTVYLQMNSLKPEDTAVYYCNKLAGYYDYDYWGQCTQVTVSS | low polyreactivity |
| QGQHVESGGGLVQAGGSLRLSCAASGSIFAAYAMGWYRQATGKERELVAPIDRGGSTDYADSVKGRFTISRDNAKNTVFLPMNSLKPEDTAVYYCDKGYDYYVRRYYYWGQGTQVTGSS | high polyreactivity |
| QGQHVESGGGLVQAGGSLRLSCDASGSTIYQYAMGWYRQAPGKESELVAAISGISGSTSYADSVTGRFTISRDNAKNTVYLQMNSLKPEDTAVYDCAKGTAPIPYRGRVGTSKSDYWGQGTQVTVSS | low polyreactivity |
| QGQHVESGGGLVQAGGSLRLSSAASGITISYYGMGWYRQERGKDRELVASITKRGGRTYYADSVKGRFTISRDNAKNTVYLQMNSLKPEETAVYYCAADRAAPRYDYWGQGTQVTVSS | high polyreactivity |
| QGQHVESGGGLVQARGSRRLSCAPSGRTFGYDAMGWYRQAPGKERELVAAINYSGVSTYYADSVKGGFTISRDTAKNTVYLQRNSLKPEDTAGSYCAAKGRYSVYSRNSWGQGTQVTVSS | high polyreactivity |
| QGQLEESGGGLVQAGGSLRLTCAASGRNLRTYAMGWYRQATGKERELVAAISRGGSTNYADSVKGRFTISRDNAKNTVYLQMHSLKPEDTAVYYCAAGYVRYYSDYVSYVYWGQGTQVTVSS | low polyreactivity |
| QGQLEESVGGLVQAGGSLRLSCAASGRIFRYYAMGLYRQAPGKERELVAAIRSGGSTNYADSVKGRFTISRDNAKNTVYLQMKSLKPEDTAVYYCNARYRYFKGGYWGQGTQVTVSS | high polyreactivity |
| QGQLVASGGGLVQAGGSLRLSSAASGSIFWLSTMGWSRQGPGKEREWVAAITGSGSATYYADSVKGRFTISRDYAKNTVYLQMTTLKPEDTADYYCAAYWSSARRRYDYWGQGSQVTVSS | high polyreactivity |
| QGQLVDSGGGLVQAGGSLRLICAASGYIFRLYAMGWYRHAPGKERELVAAISRRGGSTYYADSVKGRFTISRDNAKITVYLQMNSLKPEDTAVYYGATDHSYIDDYWGQGTQVTVSS | high polyreactivity |
| QGQLVESGGALVQAGGSLRISCAASGRTISQNSMGLYRPAPGKERELVAAIRRGGSTNYADSVKGRFTISRDNAKNTVFLQMNSLKQEDSAFYYCAGDLRRNGWGFDYWGQGTQVTVSS | high polyreactivity |
| QGQLVESGGALVQAGGSLRLSCAPSGSTFGVYTMGWYRQAPGKERELVAAITKSGGSTYYADSVKGRFTISRDNAKNTVYLQMNSLKPEDTAVYYCNTDYGSYLYYRYGYWGQGTQVTVSS | low polyreactivity |
| QGQLVESGGGIVQAGCSLLLSCSASGLIFRRKTLGWYRQAPGTERELVAVISSSGSSTYYADSVKGRFTISRDNAKNTVYLQMNSLKPEDTAVYYCAARYAIGPGYDYWGQGTQVTVSS | high polyreactivity |
| QGQLVESGGGLGQAGGSLRLSCAASGSTFGDSAMVWYRQAPGKERELVAGISARGGRTYYADSVKGRFTISRDNAKNTVYLQMNSLKPEDTAVYDCNARTGYQDGSYGNDYWGQGTQVTVSS | high polyreactivity |
| QGQLVESGGGLGQEGGSLRLICAASGNTFDYYVMGWYRQAPGKERELVAVITSGSSTYYADSVKGRFTISRDNAKNTVFFQMNSLQPEDTAVYYCAKTTRRPGLRSYDYWGQGTQVTVSS | high polyreactivity |
